Legend:
AncSZ = test: phosphorylation enrichment, bacterial display (enrichment ratio); higher = better substrate or ligand; peptides without Tyr show the background
Fyn = Fyn (UniProt P06241); test: as above
FGFR3 = FGFR3 (UniProt P22607); test: as above
EPHB1 = EPHB1 (UniProt P54762); test: as above
MERTK = MERTK (UniProt Q12866); test: as above
Fer (mouse) = test: as above
FGFR1 = FGFR1 (UniProt P11362); test: as above
Fes = Fes (UniProt P07332); test: as above
c-Abl (mouse) = test: as above
c-Src = test: as above
EPHB2 = EPHB2 (UniProt P29323); test: as above
Hck = Hck (UniProt P08631); test: as above
Hck, sequence (P08631 whole entry, looked up): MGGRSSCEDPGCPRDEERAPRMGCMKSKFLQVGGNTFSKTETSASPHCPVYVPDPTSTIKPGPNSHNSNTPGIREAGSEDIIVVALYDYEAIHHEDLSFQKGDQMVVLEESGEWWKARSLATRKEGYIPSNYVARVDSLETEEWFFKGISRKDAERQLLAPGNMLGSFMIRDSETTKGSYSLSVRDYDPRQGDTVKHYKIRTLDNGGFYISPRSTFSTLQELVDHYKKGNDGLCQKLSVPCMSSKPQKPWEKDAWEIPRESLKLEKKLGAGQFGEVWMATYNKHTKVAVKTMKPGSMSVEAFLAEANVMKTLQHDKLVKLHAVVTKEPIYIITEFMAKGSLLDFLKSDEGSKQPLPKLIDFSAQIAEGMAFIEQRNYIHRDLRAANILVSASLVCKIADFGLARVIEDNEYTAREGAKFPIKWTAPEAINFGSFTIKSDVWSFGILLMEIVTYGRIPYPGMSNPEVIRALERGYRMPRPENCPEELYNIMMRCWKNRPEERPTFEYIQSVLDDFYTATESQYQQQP

Jak2 = Jak2 (UniProt O60674); test: as above
Jak2, sequence (O60674 whole entry, looked up): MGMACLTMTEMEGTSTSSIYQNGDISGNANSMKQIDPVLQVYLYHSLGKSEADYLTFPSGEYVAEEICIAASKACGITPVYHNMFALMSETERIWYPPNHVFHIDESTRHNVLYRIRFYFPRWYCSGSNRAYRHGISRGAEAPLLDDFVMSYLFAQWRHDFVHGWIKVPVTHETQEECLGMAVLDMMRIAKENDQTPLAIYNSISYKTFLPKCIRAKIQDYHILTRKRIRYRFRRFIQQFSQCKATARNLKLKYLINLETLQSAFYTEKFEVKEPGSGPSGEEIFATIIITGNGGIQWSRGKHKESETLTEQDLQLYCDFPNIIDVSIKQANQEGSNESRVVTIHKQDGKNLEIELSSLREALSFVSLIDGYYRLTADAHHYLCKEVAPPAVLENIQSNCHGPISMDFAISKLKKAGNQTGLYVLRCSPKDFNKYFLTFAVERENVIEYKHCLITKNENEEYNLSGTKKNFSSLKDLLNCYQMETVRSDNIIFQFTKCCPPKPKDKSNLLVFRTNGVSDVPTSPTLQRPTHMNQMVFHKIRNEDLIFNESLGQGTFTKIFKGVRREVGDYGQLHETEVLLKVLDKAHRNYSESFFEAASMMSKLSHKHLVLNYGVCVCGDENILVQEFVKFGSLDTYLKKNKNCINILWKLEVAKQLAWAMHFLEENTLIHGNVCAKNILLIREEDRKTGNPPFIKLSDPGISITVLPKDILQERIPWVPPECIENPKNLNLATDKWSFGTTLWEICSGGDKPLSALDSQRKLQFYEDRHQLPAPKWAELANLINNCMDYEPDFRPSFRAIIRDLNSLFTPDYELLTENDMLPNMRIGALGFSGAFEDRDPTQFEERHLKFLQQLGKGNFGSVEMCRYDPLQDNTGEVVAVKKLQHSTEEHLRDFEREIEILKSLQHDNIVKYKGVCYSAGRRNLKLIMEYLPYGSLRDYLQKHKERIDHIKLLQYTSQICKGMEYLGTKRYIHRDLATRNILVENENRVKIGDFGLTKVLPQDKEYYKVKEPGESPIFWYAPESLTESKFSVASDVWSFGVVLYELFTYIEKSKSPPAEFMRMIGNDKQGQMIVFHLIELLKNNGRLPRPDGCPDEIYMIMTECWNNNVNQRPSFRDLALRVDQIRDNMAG

SHP2-C SH2 = test: SH2 binding enrichment of the phosphorylated peptide, bacterial display (enrichment ratio); higher = better substrate or ligand; peptides without Tyr show the background
c-Src SH2 = test: as above
Grb2 SH2 = Grb2 SH2 (UniProt P62993); test: as above
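Wherever SH2 binding enrichment of the phosphorylated peptide, bacterial display is given: peptide library displayed on the E. coli surface as eCPX fusions, selected cells deep-sequenced, score is each peptide's frequency after selection divided by its frequency in the input.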
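Wherever phosphorylation enrichment, bacterial display is given: 11-residue human phosphosite peptides and single-mutation variants displayed on the E. coli surface, counted by deep sequencing, each peptide's frequency after selection divided by its frequency in the unselected input library; frequency after pTyr selection over input frequency; kinase dosed for 20-30% of maximal phosphorylation in three min.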

Fyn, sequence (P06241 whole entry, looked up): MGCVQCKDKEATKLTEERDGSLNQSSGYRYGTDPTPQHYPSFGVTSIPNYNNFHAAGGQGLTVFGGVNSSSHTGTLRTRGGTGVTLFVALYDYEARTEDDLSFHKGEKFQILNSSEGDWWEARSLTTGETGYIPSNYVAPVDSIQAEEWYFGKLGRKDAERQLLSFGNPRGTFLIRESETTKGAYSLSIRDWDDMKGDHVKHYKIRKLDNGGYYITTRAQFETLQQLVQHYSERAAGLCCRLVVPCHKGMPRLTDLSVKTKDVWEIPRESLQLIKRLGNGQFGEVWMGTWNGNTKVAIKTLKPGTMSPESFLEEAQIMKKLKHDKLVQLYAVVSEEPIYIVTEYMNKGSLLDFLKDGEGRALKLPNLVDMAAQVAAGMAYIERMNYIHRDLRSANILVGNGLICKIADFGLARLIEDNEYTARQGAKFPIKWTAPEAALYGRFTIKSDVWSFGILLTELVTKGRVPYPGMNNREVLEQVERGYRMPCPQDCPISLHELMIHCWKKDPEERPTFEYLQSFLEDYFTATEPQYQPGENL
Fes, sequence (P07332 whole entry, looked up): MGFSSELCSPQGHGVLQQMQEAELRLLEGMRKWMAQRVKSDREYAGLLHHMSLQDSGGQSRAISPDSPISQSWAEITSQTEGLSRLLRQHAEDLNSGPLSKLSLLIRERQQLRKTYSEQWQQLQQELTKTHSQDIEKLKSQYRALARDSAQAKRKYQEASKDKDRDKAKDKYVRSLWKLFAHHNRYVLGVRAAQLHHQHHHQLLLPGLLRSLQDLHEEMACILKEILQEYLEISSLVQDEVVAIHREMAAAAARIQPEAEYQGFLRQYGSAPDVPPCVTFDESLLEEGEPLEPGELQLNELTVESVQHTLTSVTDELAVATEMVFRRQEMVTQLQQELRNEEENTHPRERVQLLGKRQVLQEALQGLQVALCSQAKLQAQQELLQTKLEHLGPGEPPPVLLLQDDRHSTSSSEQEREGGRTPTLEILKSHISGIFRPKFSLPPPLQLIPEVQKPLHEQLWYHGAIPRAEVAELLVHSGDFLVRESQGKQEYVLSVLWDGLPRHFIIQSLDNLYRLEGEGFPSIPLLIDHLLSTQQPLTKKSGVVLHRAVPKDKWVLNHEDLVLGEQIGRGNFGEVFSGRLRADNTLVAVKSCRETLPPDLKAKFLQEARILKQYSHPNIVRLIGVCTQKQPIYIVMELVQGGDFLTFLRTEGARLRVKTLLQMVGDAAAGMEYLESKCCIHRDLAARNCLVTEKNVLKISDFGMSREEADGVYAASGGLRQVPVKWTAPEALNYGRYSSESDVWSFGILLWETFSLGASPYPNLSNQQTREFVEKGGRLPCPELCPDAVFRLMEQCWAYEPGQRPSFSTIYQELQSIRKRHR
EPHB1, sequence (P54762 whole entry, looked up): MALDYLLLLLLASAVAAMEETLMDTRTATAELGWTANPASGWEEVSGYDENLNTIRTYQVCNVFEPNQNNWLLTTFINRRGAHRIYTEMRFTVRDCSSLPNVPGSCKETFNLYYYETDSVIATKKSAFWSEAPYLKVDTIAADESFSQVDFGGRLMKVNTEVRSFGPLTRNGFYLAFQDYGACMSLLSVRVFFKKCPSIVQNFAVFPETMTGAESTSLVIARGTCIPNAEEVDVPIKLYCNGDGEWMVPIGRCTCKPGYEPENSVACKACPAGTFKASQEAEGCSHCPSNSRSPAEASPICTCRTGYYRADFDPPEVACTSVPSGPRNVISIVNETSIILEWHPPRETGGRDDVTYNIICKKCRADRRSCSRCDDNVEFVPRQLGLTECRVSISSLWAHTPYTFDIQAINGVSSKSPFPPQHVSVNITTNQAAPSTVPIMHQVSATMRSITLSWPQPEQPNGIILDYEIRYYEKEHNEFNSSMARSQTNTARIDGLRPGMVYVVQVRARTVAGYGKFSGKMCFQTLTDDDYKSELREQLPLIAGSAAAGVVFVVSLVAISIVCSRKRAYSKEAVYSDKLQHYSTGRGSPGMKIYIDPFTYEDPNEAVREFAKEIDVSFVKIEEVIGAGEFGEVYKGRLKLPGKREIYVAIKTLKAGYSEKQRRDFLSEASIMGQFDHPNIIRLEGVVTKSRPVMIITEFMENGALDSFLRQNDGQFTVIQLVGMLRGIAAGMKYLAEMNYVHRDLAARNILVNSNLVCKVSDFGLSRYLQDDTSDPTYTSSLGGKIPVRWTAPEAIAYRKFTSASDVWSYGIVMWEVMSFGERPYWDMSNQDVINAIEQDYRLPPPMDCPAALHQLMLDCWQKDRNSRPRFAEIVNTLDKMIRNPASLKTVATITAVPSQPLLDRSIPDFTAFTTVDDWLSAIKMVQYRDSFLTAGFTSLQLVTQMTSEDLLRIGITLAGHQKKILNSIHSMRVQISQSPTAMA
MERTK, sequence (Q12866 whole entry, looked up): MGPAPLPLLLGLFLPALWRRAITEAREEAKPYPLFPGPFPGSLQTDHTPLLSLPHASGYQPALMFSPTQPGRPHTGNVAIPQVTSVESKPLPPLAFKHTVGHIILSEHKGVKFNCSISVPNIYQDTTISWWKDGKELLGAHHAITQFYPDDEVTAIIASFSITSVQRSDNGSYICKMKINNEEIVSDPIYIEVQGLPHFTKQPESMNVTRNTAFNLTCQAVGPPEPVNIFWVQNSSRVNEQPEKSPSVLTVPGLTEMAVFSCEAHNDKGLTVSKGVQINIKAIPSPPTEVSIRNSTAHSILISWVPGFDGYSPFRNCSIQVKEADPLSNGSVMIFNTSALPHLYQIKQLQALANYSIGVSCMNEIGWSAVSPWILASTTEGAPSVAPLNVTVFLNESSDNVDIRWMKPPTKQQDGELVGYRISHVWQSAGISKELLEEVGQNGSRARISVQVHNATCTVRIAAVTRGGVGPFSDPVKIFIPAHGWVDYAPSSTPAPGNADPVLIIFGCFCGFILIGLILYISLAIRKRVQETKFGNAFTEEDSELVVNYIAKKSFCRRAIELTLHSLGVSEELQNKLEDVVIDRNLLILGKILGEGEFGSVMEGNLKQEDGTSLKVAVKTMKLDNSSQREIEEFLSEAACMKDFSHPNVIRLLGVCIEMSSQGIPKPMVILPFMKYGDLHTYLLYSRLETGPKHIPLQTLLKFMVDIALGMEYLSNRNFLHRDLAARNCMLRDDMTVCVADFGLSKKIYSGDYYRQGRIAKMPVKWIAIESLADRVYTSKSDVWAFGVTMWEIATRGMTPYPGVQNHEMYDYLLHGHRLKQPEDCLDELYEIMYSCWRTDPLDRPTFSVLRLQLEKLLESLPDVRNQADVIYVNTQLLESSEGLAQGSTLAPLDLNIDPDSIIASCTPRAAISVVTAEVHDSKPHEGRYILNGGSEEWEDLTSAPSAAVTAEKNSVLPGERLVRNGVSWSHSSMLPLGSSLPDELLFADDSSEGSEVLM

Row | SH2 binding enrichment (SHP2-C SH2) | SH2 binding enrichment (c-Src SH2) | SH2 binding enrichment (Grb2 SH2) | Sequence | phosphorylation enrichment (AncSZ) | phosphorylation enrichment (Fyn) | phosphorylation enrichment (FGFR3) | phosphorylation enrichment (EPHB1) | phosphorylation enrichment (MERTK) | phosphorylation enrichment (Fer (mouse)) | phosphorylation enrichment (FGFR1) | phosphorylation enrichment (Fes) | phosphorylation enrichment (c-Abl (mouse)) | phosphorylation enrichment (c-Src) | phosphorylation enrichment (EPHB2) | phosphorylation enrichment (Hck) | phosphorylation enrichment (Jak2)
1 | 0.653 | 0.541 | 0.807 | DRLAVCIDRVR [LMNA_Y45_Y45C] | 0.942 | 0.46 | 0.682 | 0.605 | 0.394 | 0.457 | 0.467 | 1.15 | 0.76 | 0.436 | 0.518 | 0.477 | 0.904
2 | 0.583 | 0.522 | 0.788 | GDPTEYFSTAI [IGSF22_Y501_YF] | 1.54 | 0.525 | 0.936 | 0.634 | 0.439 | 0.433 | 0.7 | 1.08 | 0.745 | 0.502 | 0.645 | 0.498 | 1.15
3 | 0.647 | 0.47 | 0.774 | DDEVFYSPRSL [OTC_Y317] | 1.67 | 0.574 | 0.847 | 0.597 | 0.592 | 1.57 | 0.504 | 1.36 | 1.22 | 0.87 | 0.597 | 2 | 1.36
4 | 0.674 | 0.633 | 0.999 | TIMTDYNPNFC [ALK_Y1092_YF] | 0.858 | 0.499 | 0.549 | 0.498 | 0.395 | 0.373 | 0.533 | 0.917 | 0.783 | 0.545 | 0.491 | 0.47 | 0.795
5 | 0.459 | 0.63 | 0.82 | IHTEFYDGLFP [BCR_Y561_K558T] | 1.47 | 1.06 | 0.813 | 0.739 | 1.02 | 1.65 | 0.683 | 1.34 | 0.902 | 1.24 | 0.828 | 3.83 | 0.993
6 | 0.617 | 0.488 | 0.83 | EDEGLYTVRVP [MYOM3_Y343_M344T] | 1.64 | 3.52 | 0.939 | 0.766 | 1.84 | 1.38 | 0.633 | 1.24 | 0.737 | 3.4 | 0.692 | 4.08 | 1.04
7 | 0.467 | 0.521 | 0.765 | QRIFQYIRSRF [DYRK1B_Y273_Q275R_YF] | 1.07 | 0.837 | 0.695 | 0.817 | 0.975 | 0.827 | 0.75 | 1.26 | 0.988 | 1.36 | 0.795 | 0.83 | 1.24
8 | 0.964 | 0.676 | 0.974 | TYGQVYKGRHV [TNIK_Y40] | 0.484 | 8.37 | 0.533 | 0.507 | 0.942 | 0.528 | 0.493 | 0.488 | 0.711 | 6.62 | 0.506 | 6.44 | 0.482
9 | 0.345 | 0.392 | 0.743 | KGEDFYFVTCH [FHL1_Y149_C150Y_YF] | 1.26 | 0.451 | 0.946 | 0.709 | 0.491 | 0.588 | 0.62 | 1.57 | 0.9 | 0.468 | 0.788 | 0.503 | 1.49
10 | 1.65 | 1.51 | 1.74 | NKVKFYIPYMN [NCR1_Y84_D87Y] | 0.919 | 0.394 | 0.655 | 0.599 | 0.473 | 0.469 | 0.483 | 1.06 | 0.609 | 0.495 | 0.496 | 0.431 | 0.893
11 | 1.31 | 2.44 | 2.63 | LYRYGYANTSE [SI_Y1233_C1229Y] | 0.806 | 0.383 | 0.507 | 0.437 | 0.36 | 0.32 | 0.46 | 0.775 | 0.511 | 0.351 | 0.39 | 0.395 | 0.6
12 | 0.7 | 0.557 | 0.882 | ETAENYLGYTA [HSPA9_Y181_H184Y] | 1.17 | 0.563 | 0.784 | 0.674 | 0.516 | 0.498 | 0.748 | 1.23 | 0.691 | 0.678 | 0.684 | 0.751 | 0.839
13 | 0.565 | 0.476 | 1.19 | SSMIDYKPLEK [MYOC_Y479_N480K] | 0.562 | 0.434 | 0.425 | 0.357 | 0.441 | 0.322 | 0.377 | 0.538 | 0.459 | 0.384 | 0.421 | 0.413 | 0.495
14 | 0.976 | 0.679 | 1.27 | FRKNTYNVKST [SYNE2_Y575_I574T_YF] | 0.466 | 0.426 | 0.366 | 0.425 | 0.473 | 0.375 | 0.352 | 0.578 | 0.609 | 0.437 | 0.333 | 0.402 | 0.402
15 | 0.831 | 0.785 | 0.711 | MEKEKYVSFIS [JMJD1C_Y596_YF] | 0.833 | 0.348 | 0.55 | 0.416 | 0.454 | 0.35 | 0.434 | 0.832 | 0.541 | 0.486 | 0.417 | 0.497 | 0.518
16 | 0.85 | 0.686 | 1.07 | ITVCDYTNPCP [MYD88_Y276_T281P] | 1.49 | 0.428 | 0.551 | 0.561 | 0.333 | 0.396 | 0.443 | 0.829 | 0.551 | 0.943 | 0.482 | 0.354 | 0.689
17 | 1.11 | 21.6 | 0.91 | EIVHRYVELLD [AP1S3_Y87] | 0.892 | 0.464 | 0.673 | 0.483 | 0.506 | 0.499 | 0.41 | 1.06 | 0.744 | 0.498 | 0.53 | 0.504 | 0.922

Row | SH2 binding enrichment (SHP2-C SH2) | SH2 binding enrichment (c-Src SH2) | SH2 binding enrichment (Grb2 SH2) | Sequence | phosphorylation enrichment (AncSZ) | phosphorylation enrichment (Fyn) | phosphorylation enrichment (FGFR3) | phosphorylation enrichment (EPHB1) | phosphorylation enrichment (MERTK) | phosphorylation enrichment (Fer (mouse)) | phosphorylation enrichment (FGFR1) | phosphorylation enrichment (Fes) | phosphorylation enrichment (c-Abl (mouse)) | phosphorylation enrichment (c-Src) | phosphorylation enrichment (EPHB2) | phosphorylation enrichment (Hck) | phosphorylation enrichment (Jak2)
18 | 0.697 | 0.548 | 0.861 | TNDMRYPMKSE [TGDS_Y302] | 0.675 | 0.445 | 0.523 | 0.345 | 0.469 | 0.359 | 0.486 | 0.672 | 0.557 | 0.424 | 0.46 | 0.438 | 0.579
19 | 1.43 | 1.03 | 1.55 | VTRKEYFIFLE [CAMKV_Y95] | 1.11 | 0.481 | 0.838 | 0.696 | 0.401 | 0.528 | 0.786 | 1.06 | 0.792 | 0.695 | 0.554 | 0.43 | 1.01
20 | 0.759 | 0.5 | 0.762 | FARECYSALPQ [SARS2_Y52_G51C_YF] | 1.66 | 0.671 | 1.06 | 0.55 | 1.18 | 0.982 | 1.17 | 1.01 | 0.726 | 0.702 | 0.603 | 2.93 | 0.761
21 | 0.768 | 0.663 | 1.02 | EPNSRYTYKLE [USH2A_Y3745] | 0.684 | 0.492 | 0.534 | 0.537 | 0.384 | 0.27 | 0.438 | 0.895 | 0.753 | 0.501 | 0.46 | 0.439 | 0.628
22 | 1.31 | 0.762 | 1.03 | LKLIQYHLTQQ [AKAP4_Y554] | 0.902 | 0.5 | 0.879 | 0.88 | 1.15 | 0.711 | 0.932 | 1.34 | 0.646 | 0.599 | 0.774 | 0.534 | 1.28
23 | 0.803 | 0.4 | 0.781 | KQELVYTNKKL [OPTN_Y356] | 0.69 | 0.441 | 0.474 | 0.496 | 0.594 | 0.571 | 0.47 | 0.675 | 0.759 | 0.836 | 0.561 | 0.734 | 0.791
24 | 2.06 | 0.654 | 0.907 | RESVSYLFSHV [PRPS1_Y311_G306R] | 1 | 1.41 | 0.814 | 0.588 | 0.492 | 0.479 | 0.532 | 1.12 | 1.06 | 0.742 | 0.901 | 0.549 | 1.15
25 | 0.971 | 0.742 | 1 | TLSGIYQFNIA [FOXL2_Y81_I84N_YF] | 0.891 | 4.21 | 0.539 | 0.76 | 5.39 | 7.33 | 0.543 | 0.741 | 0.676 | 4.73 | 0.555 | 2.98 | 0.696
26 | 0.734 | 0.619 | 0.959 | GDPTEYYSTAI [IGSF22_Y501] | 1.77 | 0.599 | 1.74 | 0.598 | 0.497 | 0.738 | 2.04 | 0.873 | 0.636 | 0.87 | 0.555 | 0.809 | 0.954
27 | 0.934 | 0.878 | 1.19 | EKRDAYVSCLN [GSR_Y150_R153C] | 0.925 | 0.481 | 0.702 | 0.568 | 0.472 | 0.437 | 0.563 | 1.1 | 0.776 | 0.514 | 0.472 | 0.53 | 0.726
28 | 1.37 | 1.44 | 1.39 | GLIPAYHRFIM [NMNAT1_Y64_V67F] | 0.734 | 0.535 | 0.687 | 0.521 | 0.593 | 0.418 | 0.553 | 0.822 | 0.619 | 0.616 | 0.423 | 0.494 | 1.31
29 | 0.563 | 0.589 | 0.895 | FVGGFYGGCNE [CTSC_Y352_YF] | 1.22 | 0.666 | 0.918 | 0.696 | 0.516 | 0.941 | 0.632 | 1.42 | 0.86 | 0.784 | 0.752 | 1.02 | 1.27
30 | 0.624 | 0.999 | 0.779 | GRRNTYYASIA [ACADM_Y352] | 0.653 | 0.532 | 0.454 | 0.35 | 0.774 | 0.414 | 0.45 | 0.849 | 0.572 | 0.638 | 0.477 | 0.56 | 0.735
31 | 1.92 | 1.85 | 1.98 | LLVVLYKFRCF [PSEN1_Y154_Y159F_YF] | 1.39 | 0.51 | 1.56 | 0.685 | 1.03 | 0.718 | 0.568 | 1.97 | 1.77 | 0.937 | 0.773 | 0.622 | 1.85
32 | 0.575 | 0.524 | 0.923 | PTQLPYDHKWE [KIT_Y578] | 0.859 | 0.491 | 0.696 | 0.716 | 0.449 | 0.601 | 0.581 | 1.33 | 0.655 | 0.618 | 0.631 | 0.87 | 0.68
33 | 0.407 | 0.394 | 0.978 | PMDGEYFTLQI [TP53_Y327_L323M] | 4.04 | 4.35 | 9.07 | 1.5 | 0.604 | 1.57 | 12 | 1.95 | 2.02 | 5.21 | 0.753 | 2.79 | 4.86
